Measured values reported in the Human Domainome abundance scans (Beltran et al. 2025).
± gives the uncertainty stated by the source.

B1: Transcription factor SOX-11, residues 50 to 117; numbered along this chain, P35716 (parent)
chain: KRPMNAFMVWSKIERRKIMEQSPDMHNAEISKRLGKRWKMLKDSEKIPFIREAERLRLKHMADYPDYK
B2: Cell division cycle and apoptosis regulator protein 1, residues 625 to 674; numbered along this chain, Q8IX12 (parent)
chain: ISTPTHWSKLDPKTMKVNDLRKELESRALSSKGLKSQLIARLTKQLKVEE

Variants of: B1
Experiment: abundance fitness (aPCA) (normalised: wild type 0, dead -1); higher = more abundant; growth selection in yeast, the domain comes from the species named
Settings: Homo sapiens

Variant	abundance fitness
K36D	0.247 ± 0.059
K36G	-0.219 ± 0.064
K36V	0.052 ± 0.054
K36W	-0.535 ± 0.18
K36N	0.094 ± 0.057
K36P	-0.868 ± 0.22
K36C	-0.166 ± 0.062
R51L	-0.125 ± 0.054
R51C	-0.304 ± 0.058
R51G	-0.606 ± 0.068
R51K	-0.054 ± 0.12
L58C	-0.116 ± 0.055
L58H	0.065 ± 0.06
L58E	-0.294 ± 0.16
S22L	-0.522 ± 0.076
S22Q	-0.09 ± 0.14
D66Q	-0.115 ± 0.29
D66L	-0.226 ± 0.11
D66F	-0.265 ± 0.11
A62G	0.079 ± 0.05
R2A	-0.178 ± 0.079
R2T	0.282 ± 0.061
R2V	0.118 ± 0.055
I30H	-0.733 ± 0.097
I30D	-0.779 ± 0.11

Variant	abundance fitness
A28D	0.205 ± 0.056
A28G	-0.205 ± 0.053
R33K	-0.075 ± 0.18
R33G	-0.54 ± 0.08
R33Q	0.465 ± 0.13
D43I	-0.272 ± 0.054
D43K	-0.205 ± 0.14
K12W	-0.89 ± 0.32
K12T	-0.119 ± 0.08
Q21E	0.148 ± 0.13
Q21P	-0.437 ± 0.13
R55V	-0.343 ± 0.063
R55K	-0.177 ± 0.15
R55P	-0.868 ± 0.19
F7D	-0.848 ± 0.13
F7A	-0.75 ± 0.12
F7H	-0.879 ± 0.12
F7L	-0.958 ± 0.12
I18F	-0.688 ± 0.1
I18Q	-0.869 ± 0.33
I18C	-0.714 ± 0.1
I18A	-0.521 ± 0.11
K1S	-0.026 ± 0.067
K1N	0.077 ± 0.06
P65Y	-0.41 ± 0.37

Variant	abundance fitness
M19D	-0.649 ± 0.1
M19P	-0.769 ± 0.14
H60V	-0.047 ± 0.061
H60N	0.058 ± 0.055
H60C	-0.031 ± 0.06
H60I	-0.178 ± 0.066
K46F	-0.987 ± 0.087
E52T	-0.397 ± 0.079
E52M	-0.396 ± 0.12
E52D	-0.438 ± 0.088
E52Q	-1.04 ± 0.34
E52H	-0.564 ± 0.078
A53M	-0.33 ± 0.19
A53N	-0.474 ± 0.11
A53G	-0.946 ± 0.087
R15D	-1.11 ± 0.21
R15K	-0.151 ± 0.15
R15E	0.101 ± 0.17
I13R	-0.446 ± 0.062
I13S	-0.406 ± 0.056
I13P	-0.646 ± 0.11
I13L	-0.237 ± 0.061
I13G	-0.206 ± 0.059
I13A	-0.135 ± 0.068

Variants of: B2
Experiment: as above
Settings: Homo sapiens

Variant	abundance fitness
IMTPTHWSKLDPKTMKVNDLRKELESRALSSKGLKSQLIARLTKQLKVEE	0.127 ± 0.049
IFTPTHWSKLDPKTMKVNDLRKELESRALSSKGLKSQLIARLTKQLKVEE	0.103 ± 0.073
IWTPTHWSKLDPKTMKVNDLRKELESRALSSKGLKSQLIARLTKQLKVEE	-0.083 ± 0.05
IATPTHWSKLDPKTMKVNDLRKELESRALSSKGLKSQLIARLTKQLKVEE	-0.072 ± 0.033
IDTPTHWSKLDPKTMKVNDLRKELESRALSSKGLKSQLIARLTKQLKVEE	0.064 ± 0.038
IRTPTHWSKLDPKTMKVNDLRKELESRALSSKGLKSQLIARLTKQLKVEE	-0.021 ± 0.032
IQTPTHWSKLDPKTMKVNDLRKELESRALSSKGLKSQLIARLTKQLKVEE	-0.06 ± 0.068
IHTPTHWSKLDPKTMKVNDLRKELESRALSSKGLKSQLIARLTKQLKVEE	-0.037 ± 0.047
IITPTHWSKLDPKTMKVNDLRKELESRALSSKGLKSQLIARLTKQLKVEE	0.18 ± 0.071
INTPTHWSKLDPKTMKVNDLRKELESRALSSKGLKSQLIARLTKQLKVEE	0.23 ± 0.041
IPTPTHWSKLDPKTMKVNDLRKELESRALSSKGLKSQLIARLTKQLKVEE	-0.175 ± 0.031
IKTPTHWSKLDPKTMKVNDLRKELESRALSSKGLKSQLIARLTKQLKVEE	0.096 ± 0.037
ITTPTHWSKLDPKTMKVNDLRKELESRALSSKGLKSQLIARLTKQLKVEE	0.079 ± 0.053
IGTPTHWSKLDPKTMKVNDLRKELESRALSSKGLKSQLIARLTKQLKVEE	-0.003 ± 0.031
ICTPTHWSKLDPKTMKVNDLRKELESRALSSKGLKSQLIARLTKQLKVEE	0.029 ± 0.047
IVTPTHWSKLDPKTMKVNDLRKELESRALSSKGLKSQLIARLTKQLKVEE	0.06 ± 0.036
ISFPTHWSKLDPKTMKVNDLRKELESRALSSKGLKSQLIARLTKQLKVEE	-0.121 ± 0.06
ISLPTHWSKLDPKTMKVNDLRKELESRALSSKGLKSQLIARLTKQLKVEE	-0.037 ± 0.041
ISMPTHWSKLDPKTMKVNDLRKELESRALSSKGLKSQLIARLTKQLKVEE	-0.004 ± 0.06
ISAPTHWSKLDPKTMKVNDLRKELESRALSSKGLKSQLIARLTKQLKVEE	-0.203 ± 0.037
ISGPTHWSKLDPKTMKVNDLRKELESRALSSKGLKSQLIARLTKQLKVEE	-0.096 ± 0.031
ISCPTHWSKLDPKTMKVNDLRKELESRALSSKGLKSQLIARLTKQLKVEE	-0.025 ± 0.038

Variant	abundance fitness
ISKPTHWSKLDPKTMKVNDLRKELESRALSSKGLKSQLIARLTKQLKVEE	0.042 ± 0.052
ISDPTHWSKLDPKTMKVNDLRKELESRALSSKGLKSQLIARLTKQLKVEE	-0.136 ± 0.046
ISHPTHWSKLDPKTMKVNDLRKELESRALSSKGLKSQLIARLTKQLKVEE	-0.288 ± 0.083
ISEPTHWSKLDPKTMKVNDLRKELESRALSSKGLKSQLIARLTKQLKVEE	-0.007 ± 0.033
ISIPTHWSKLDPKTMKVNDLRKELESRALSSKGLKSQLIARLTKQLKVEE	-0.114 ± 0.057
ISPPTHWSKLDPKTMKVNDLRKELESRALSSKGLKSQLIARLTKQLKVEE	-0.162 ± 0.055
ISQPTHWSKLDPKTMKVNDLRKELESRALSSKGLKSQLIARLTKQLKVEE	-0.197 ± 0.057
GSTPTHWSKLDPKTMKVNDLRKELESRALSSKGLKSQLIARLTKQLKVEE	-0.261 ± 0.08
VSTPTHWSKLDPKTMKVNDLRKELESRALSSKGLKSQLIARLTKQLKVEE	-0.11 ± 0.046
FSTPTHWSKLDPKTMKVNDLRKELESRALSSKGLKSQLIARLTKQLKVEE	0.207 ± 0.13
CSTPTHWSKLDPKTMKVNDLRKELESRALSSKGLKSQLIARLTKQLKVEE	-0.398 ± 0.18
MSTPTHWSKLDPKTMKVNDLRKELESRALSSKGLKSQLIARLTKQLKVEE	-0.123 ± 0.058
RSTPTHWSKLDPKTMKVNDLRKELESRALSSKGLKSQLIARLTKQLKVEE	-0.458 ± 0.084
NSTPTHWSKLDPKTMKVNDLRKELESRALSSKGLKSQLIARLTKQLKVEE	-0.33 ± 0.093
ASTPTHWSKLDPKTMKVNDLRKELESRALSSKGLKSQLIARLTKQLKVEE	0.049 ± 0.29
TSTPTHWSKLDPKTMKVNDLRKELESRALSSKGLKSQLIARLTKQLKVEE	-0.145 ± 0.064
KSTPTHWSKLDPKTMKVNDLRKELESRALSSKGLKSQLIARLTKQLKVEE	-0.257 ± 0.082
LSTPTHWSKLDPKTMKVNDLRKELESRALSSKGLKSQLIARLTKQLKVEE	-0.3 ± 0.085
WSTPTHWSKLDPKTMKVNDLRKELESRALSSKGLKSQLIARLTKQLKVEE	-0.478 ± 0.1
ESTPTHWSKLDPKTMKVNDLRKELESRALSSKGLKSQLIARLTKQLKVEE	-0.314 ± 0.11
DSTPTHWSKLDPKTMKVNDLRKELESRALSSKGLKSQLIARLTKQLKVEE	-0.641 ± 0.3
YSTPTHWSKLDPKTMKVNDLRKELESRALSSKGLKSQLIARLTKQLKVEE	-0.206 ± 0.23
